Laboratory results taken from IntAct's records for PubMed 26635368.

Molecular target: spre1_human SPRED1 (UniProt Q7Z699)
Sequence (Q7Z699 whole entry): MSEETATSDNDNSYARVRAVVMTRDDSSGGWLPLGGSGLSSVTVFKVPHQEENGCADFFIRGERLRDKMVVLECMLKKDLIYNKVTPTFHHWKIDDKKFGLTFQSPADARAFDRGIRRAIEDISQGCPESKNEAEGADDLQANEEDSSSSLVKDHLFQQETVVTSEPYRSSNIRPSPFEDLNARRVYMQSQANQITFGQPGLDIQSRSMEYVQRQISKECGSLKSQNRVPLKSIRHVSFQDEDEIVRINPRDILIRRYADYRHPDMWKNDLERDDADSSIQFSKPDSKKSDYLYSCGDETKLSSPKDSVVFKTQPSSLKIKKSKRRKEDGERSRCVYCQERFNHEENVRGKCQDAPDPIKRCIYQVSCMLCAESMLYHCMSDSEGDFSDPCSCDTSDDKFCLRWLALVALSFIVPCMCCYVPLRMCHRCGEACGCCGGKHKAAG

Row | Substance | effect of a mutation on the interaction
1 | Neurofibromin (Homo sapiens), P21359 D1217G | decreasing interaction strength
2 | Neurofibromin (Homo sapiens), P21359 L1511P | decreasing interaction strength
3 | Neurofibromin (Homo sapiens), P21359 R1276P | with no effect

Molecular target: spre1_human SPRED1 (UniProt Q7Z699)
Remark: another data set of the same source

Row | Substance | effect of a mutation on the interaction
4 | Neurofibromin (Homo sapiens), P21359 D1217G | disrupting interaction strength
5 | Neurofibromin (Homo sapiens), P21359 G1519E | with no effect
6 | Neurofibromin (Homo sapiens), P21359 Q1515R | with no effect
7 | Neurofibromin (Homo sapiens), P21359 R1204L | decreasing interaction strength
8 | Neurofibromin (Homo sapiens), P21359 R1204W | decreasing interaction strength

The remaining lines, values ahead:

Row | effect of a mutation on the interaction | Substance
9 | with no effect | Neurofibromin (Homo sapiens), P21359 A1202S
10 | decreasing interaction strength | Neurofibromin (Homo sapiens), P21359 L1208W
11 | with no effect | Neurofibromin (Homo sapiens), P21359 L1211R
12 | with no effect | Neurofibromin (Homo sapiens), P21359 R1204G
